Data: PMC7949032, “The KH domain facilitates the substrate specificity and unwinding processivity of DDX43 helicase”
Blank lines part the entries; values can stand above or below the molecule they belong to.

Assays:
DDX43 KH-126 = target: T1, DDX43 KH-126 (UniProt Q9NXZ2); assay: filter binding; details: EMSA: 40 mM Tris pH 8.0, 0.5 mM MgCl2, 15 mM NaCl, 0.01% NP-40, 0.1 mM DTT, 1 mg/ml BSA, no ATP, ice 30 min (Fig 2A legend: RT); filter binding: 25 mM Tris pH …
T1 sequence: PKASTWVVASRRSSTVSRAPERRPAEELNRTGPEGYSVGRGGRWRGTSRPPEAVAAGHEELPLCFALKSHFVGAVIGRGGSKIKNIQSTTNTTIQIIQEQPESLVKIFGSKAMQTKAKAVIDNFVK

[1] = target: DDX43 KH-domain protein KH-126 (human) (UniProt Q9NXZ2); assay: SEC; Sephacryl S-100 high-resolution column calibrated with molecular mass standards; buffer A (25 mM Tris pH 8.0, 0.15 M NaCl, 100 uM Tween 20, 10% glycerol), 0.5 ml/min
DDX43 KH-89 [2] = target: T2, DDX43 KH-89 (UniProt Q9NXZ2 54-142); assay: NMR HSQC titration; negligible shift changes; EMSA: 40 mM Tris pH 8.0, 0.5 mM MgCl2, 15 mM NaCl, 0.01% NP-40, 0.1 mM DTT, 1 mg/ml BSA, no ATP, ice 30 min (Fig 2A legend: RT); filter binding: 25 mM Tris pH 7.5, 25 mM KOAc, 1 mM Mg(OAc)2, 1 mM DTT, 0.1 mg/ml BSA, 37 C; NMR: 25 mM Hepes pH 7.4, 250 mM NaCl, 5% D2O, temperature not stated; details: protein: recombinant; His removed by thrombin for NMR; 15N
T2 sequence: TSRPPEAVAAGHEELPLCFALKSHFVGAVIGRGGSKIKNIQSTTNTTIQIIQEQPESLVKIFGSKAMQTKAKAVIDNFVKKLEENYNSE

DDX43 KH-89 [3] = target: T2, DDX43 KH-89; assay: NMR HSQC titration; EMSA: 40 mM Tris pH 8.0, 0.5 mM MgCl2, 15 mM NaCl, 0.01% NP-40, 0.1 mM DTT, 1 mg/ml BSA, no ATP, ice 30 min (Fig 2A legend: RT); filter binding: 25 mM Tris pH 7.5, 25 mM KOAc, 1 mM Mg(OAc)2, 1 mM DTT, 0.1 mg/ml BSA, 37 C; NMR: 25 mM Hepes pH 7.4, 250 mM NaCl, 5% D2O, temperature not stated; details: protein: recombinant; His removed by thrombin for NMR; 15N
DDX43 full-length WT [4] = target: T3, DDX43 full-length WT (UniProt Q9NXZ2 1-648); assay: EMSA; no ATP; preferred RNA; EMSA: 40 mM Tris pH 8.0, 0.5 mM MgCl2, 15 mM NaCl, 0.01% NP-40, 0.1 mM DTT, 1 mg/ml BSA, no ATP, ice 30 min (Fig 2A legend: RT); filter binding: 25 mM Tris pH 7.5, 25 mM KOAc, 1 mM Mg(OAc)2, 1 mM DTT, 0.1 mg/ml BSA, 37 C; NMR: 25 mM Hepes pH 7.4, 250 mM NaCl, 5% D2O, temperature not stated; details: protein: recombinant; (pET28a); label: 5'-32P; 13 bp, 5' overhang 15 nt on strand 1
T3 sequence (Q9NXZ2 whole entry): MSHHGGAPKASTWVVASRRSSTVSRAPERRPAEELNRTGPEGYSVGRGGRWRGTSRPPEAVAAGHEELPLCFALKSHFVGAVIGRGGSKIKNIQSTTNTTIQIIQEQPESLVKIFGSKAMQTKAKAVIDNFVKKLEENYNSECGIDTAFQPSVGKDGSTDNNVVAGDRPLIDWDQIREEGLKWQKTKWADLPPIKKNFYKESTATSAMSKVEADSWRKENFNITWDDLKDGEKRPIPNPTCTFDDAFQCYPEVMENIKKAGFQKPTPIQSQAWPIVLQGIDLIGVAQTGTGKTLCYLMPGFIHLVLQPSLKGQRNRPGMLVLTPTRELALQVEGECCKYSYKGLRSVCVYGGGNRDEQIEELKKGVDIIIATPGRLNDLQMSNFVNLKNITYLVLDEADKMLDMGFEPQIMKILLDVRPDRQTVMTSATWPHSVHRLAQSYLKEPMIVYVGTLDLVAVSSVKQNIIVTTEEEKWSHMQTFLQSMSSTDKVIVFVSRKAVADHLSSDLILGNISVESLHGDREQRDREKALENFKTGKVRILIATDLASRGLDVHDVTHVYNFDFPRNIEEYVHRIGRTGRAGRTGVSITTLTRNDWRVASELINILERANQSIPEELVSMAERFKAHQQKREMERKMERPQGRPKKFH

DDX43 KH-89 [5] = target: T2, DDX43 KH-89; assay: EMSA; EMSA: 40 mM Tris pH 8.0, 0.5 mM MgCl2, 15 mM NaCl, 0.01% NP-40, 0.1 mM DTT, 1 mg/ml BSA, no ATP, ice 30 min (Fig 2A legend: RT); filter binding: 25 mM Tris pH 7.5, 25 mM KOAc, 1 mM Mg(OAc)2, 1 mM DTT, 0.1 mg/ml BSA, 37 C; NMR: 25 mM Hepes pH 7.4, 250 mM NaCl, 5% D2O, temperature not stated; details: protein: recombinant; His removed by thrombin for NMR; 15N; label: 5'-32P
DDX43 full-length WT [6] = target: T3, DDX43 full-length WT; assay: EMSA; no ATP; preferred DNA; EMSA: 40 mM Tris pH 8.0, 0.5 mM MgCl2, 15 mM NaCl, 0.01% NP-40, 0.1 mM DTT, 1 mg/ml BSA, no ATP, ice 30 min (Fig 2A legend: RT); filter binding: 25 mM Tris pH 7.5, 25 mM KOAc, 1 mM Mg(OAc)2, 1 mM DTT, 0.1 mg/ml BSA, 37 C; NMR: 25 mM Hepes pH 7.4, 250 mM NaCl, 5% D2O, temperature not stated; details: protein: recombinant; (pET28a); label: 5'-32P; 20 bp, 3' overhang 25 nt on strand 1
DDX43 KH-89 A81G = target: T4, DDX43 KH-89 A81G (UniProt Q9NXZ2 54-142, A81G); assay: NMR HSQC titration; fewer residues shifted, larger shifts than WT; EMSA: 40 mM Tris pH 8.0, 0.5 mM MgCl2, 15 mM NaCl, 0.01% NP-40, 0.1 mM DTT, 1 mg/ml BSA, no ATP, ice 30 min (Fig 2A legend: RT); filter binding: 25 mM Tris pH 7.5, 25 mM KOAc, 1 mM Mg(OAc)2, 1 mM DTT, 0.1 mg/ml BSA, 37 C; NMR: 25 mM Hepes pH 7.4, 250 mM NaCl, 5% D2O, temperature not stated; details: protein: recombinant; tags: His cleaved by thrombin
T4 sequence: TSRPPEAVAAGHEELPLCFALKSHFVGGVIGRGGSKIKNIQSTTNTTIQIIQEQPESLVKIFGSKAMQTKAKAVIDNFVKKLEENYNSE

Molecule: UUUUUUUUUUUUUUUUUUUUUUUUUUUUUU [rU30]
Kd (DDX43 KH-126): 1.48 µM

Molecule: UUUUUUUUUUUUUUUGGUGAUGGUGUAUUGAGUGGGAUGCAUGCA / UGCAUGCAUCCCACUCAAUACACCAUCACCUUUUUUUUUUUUUUU [forked dsRNA 30/15]
Kd (DDX43 KH-126): 2.5 µM

Molecule: TTTTTTTTTTTTTTTTTTTTTTTTTTTTTT [dT30]
Kd (DDX43 KH-126): 2.45 µM

Molecule: GAGCUACCAGCUACCCCGUAUGUCAGAGAG [ssRNA 30-mer]
Kd (DDX43 KH-126): 3.01 µM

stoichiometry N [1]: 2
Molecule: DDX43 KH-domain protein KH-126 (from UniProt Q9NXZ2 67-128) (domain or fragment)

Molecule: GAGCTACCAGCTACCCCGTATGTCAGAGAG [ssDNA 30-mer]
Kd (DDX43 KH-126): 1.41 µM

Molecule: TTTTTTTTTTTTTTTGGTGATGGTGTATTGAGTGGGATGCATGCA / TGCATGCATCCCACTCAATACACCATCACCTTTTTTTTTTTTTTT [fork dsDNA 30/15]
Kd (DDX43 KH-126): 1.29 µM

Molecule: AAAAA (ssDNA) [dA5]
binding result (DDX43 KH-89 [2]): no binding

Molecule: GTTGT (ssDNA)
Kd (DDX43 KH-89 [3]): 44 µM

Molecule: GGGGG (ssDNA) [dG5]
binding result (DDX43 KH-89 [2]): no binding

B1: 13-bp dsRNA 5' UUGU-repeat tail (dsRNA)
RNA 1: UGUUGUUGUUGUUGUACCGUAAAGACGC
RNA 2: GCGUCUUUACGGU
binding result (DDX43 full-length WT [4]): binds

Molecule: GAGCUACCAGCUACCCCGUAUGUCAGAGAG (ssRNA) [ssRNA 30-mer]
binding result (DDX43 KH-89 [5]): binds

Molecule: GAGCTACCAGCTACCCCGTATGTCAGAGAG (ssDNA) [ssDNA 30-mer]
binding result (DDX43 KH-89 [5]): binds

Molecule: TTTTTTTTTT (ssDNA) [dT10]
Kd (DDX43 KH-89 [3]): 174 ± 90 µM

Molecule: CCCCC (ssDNA) [dC5]
Kd (DDX43 KH-89 [3]): 2100 ± 400 µM

Molecule: UUUUU (ssRNA) [rU5]
Kd (DDX43 KH-89 [3]): 1800 ± 200 µM

B2: 20-bp dsDNA 3' TTGT-repeat tail (dsDNA)
DNA 1: CCACTCAATACACCATCACCTTGTTGTTGTTGTTGTTGTTGTTGT
DNA 2: GGTGATGGTGTATTGAGTGG
binding result (DDX43 full-length WT [6]): binds

Molecule: CTCTC (ssDNA)
binding result (DDX43 KH-89 [3]): binds

Molecule: TTTTT (ssDNA) [dT5]
Kd (DDX43 KH-89 [3]): 1500 ± 290 µM
binding result (DDX43 KH-89 A81G): binds

Molecule: CGCGC (ssDNA)
Kd (DDX43 KH-89 [3]): 266 µM

Molecule: TGTGT (ssDNA)
Kd (DDX43 KH-89 [3]): 78 µM
